According to article PMC3477141, “Repositioning Antimicrobial Agent Pentamidine as a Disruptor of the Lateral Interactions of Transmembrane Domain 5 of EBV Latent Membrane Protein 1” (PLoS ONE, 2012):
Where no end group is shown, it is not given here.

B1: coumarin labeled LMP-1 TMD-5 peptide (peptide)
peptide: {7‑hydroxycoumarin‑3‑carboxylic acid}-GGGPGWQLLAFFLAFFLDLILLIIALYLGPGG
notes: flank between the coumarin label and TMD-5; transmembrane domain 5 (TMD-5) of latent membrane protein 1 (LMP-1) of Epstein-Barr virus; C-terminal flank; also called coumarin labeled TMD-5; source: synthetic peptide, labeled with coumarin on the resin, purified by reverse phase HPLC
B2: LMP-1 TMD-5 peptide KKKK-TMD-5-KKKK (peptide)
peptide: KKKKWQLLAFFLAFFLDLILLIIALYLKKKK
notes: lysine flank added to increase the solubility of the peptide; transmembrane domain 5 (TMD-5) of latent membrane protein 1 (LMP-1) of Epstein-Barr virus; source: synthetic peptide, purified by reverse phase HPLC

What was measured:
[1] = molecular target: the molecule itself; experiment: coumarin fluorescence dequenching (self-quenching) assay; 100 nM coumarin labeled TMD-5 in 50 mM HEPES pH 7.4 with 150 uM C14 betaine micelles, room temperature overnight; excitation 360 nm, emission 430 nm; with or without 64 uM pentamidine
[2] = molecular target: the molecule itself; experiment: Bis-Tris SDS-PAGE; 12% NuPAGE Bis-Tris gel, MES SDS running buffer, room temperature; 200 uM TMD-5 peptide in Laemmli sample buffer overnight, heated at 90 C for 7 min; Coomassie stain; pentamidine to peptide ratios 0 to 20

Protein	binding result [1]	stoichiometry N [2]
B1	binds	
B2		3
